Data as given in publication PMC3206016, “Putting into Practice Domain-Linear Motif Interaction Predictions for Exploration of Protein Networks” (PLoS ONE, 2011).
Values joined by “and” are separate entries in the source; they are usually repeats but may differ in a detail not shown here. Identical values can stand only once. Ends that are not written are not given here. * marks the point of attachment. Biotin = O=C1N[C@H]2[C@H](CS[C@H]2CCCCC(=O)*)N1

T1: SCRIB-3/4 (MBP fusion of the third of the four PDZ domains of SCRIB) (human, UniProt Q14160-1 997-1093)
T1 construct: also called MBP-PDZ analyte SCRIB-3/4; source: E. coli BL21 DE3, purified (amylose column, Superdex 75 gel filtration)
T1 sequence (looked up): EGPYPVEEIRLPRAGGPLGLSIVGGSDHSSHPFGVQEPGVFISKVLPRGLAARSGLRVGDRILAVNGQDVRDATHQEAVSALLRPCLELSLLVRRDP

T2: SCRIB-34/4 (MBP fusion of the tandem of the third and fourth PDZ domains of SCRIB) (human, UniProt Q14160-1 997-1193)
T2 construct: also called MBP-PDZ analyte SCRIB-34/4; tandem PDZ construct; source: E. coli BL21 DE3, purified (amylose column, Superdex 75 gel filtration)
T2 sequence (looked up): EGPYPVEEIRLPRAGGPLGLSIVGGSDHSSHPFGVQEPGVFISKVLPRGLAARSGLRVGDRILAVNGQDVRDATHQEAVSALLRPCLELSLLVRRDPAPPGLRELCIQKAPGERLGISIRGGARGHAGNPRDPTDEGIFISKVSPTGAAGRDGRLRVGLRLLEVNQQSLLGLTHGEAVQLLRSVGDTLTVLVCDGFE

T3: SCRIB-4/4 (MBP fusion of the fourth of the four PDZ domains of SCRIB) (human, UniProt Q14160-1 1097-1193)
T3 construct: also called MBP-PDZ analyte SCRIB-4/4; source: E. coli BL21 DE3, purified (amylose column, Superdex 75 gel filtration)
T3 sequence (looked up): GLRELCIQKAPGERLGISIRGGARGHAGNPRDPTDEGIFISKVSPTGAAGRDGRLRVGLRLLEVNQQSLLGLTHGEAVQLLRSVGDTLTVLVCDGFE


Experiments:
Experiment in all cases: SPR
Details in all cases: both partners purified
[1] = molecular target: T4, MAGI1-3/6 (MBP fusion of the third of the six PDZ domains of MAGI1) (mouse, UniProt Q6RHR9-1 613-752)
T4 construct: source: E. coli BL21 DE3, purified (amylose column, Superdex 75 gel filtration)

[2] = molecular target: T1, SCRIB-3/4 (MBP fusion of the third of …)
[3] = molecular target: T2, SCRIB-34/4 (MBP fusion of the tandem of …)
[4] = molecular target: T5, MAGI1-2/6 (MBP fusion of the second of the six PDZ domains of MAGI1) (mouse, UniProt Q6RHR9-1 448-572)
T5 construct: source: E. coli BL21 DE3, purified (amylose column, Superdex 75 gel filtration)

[5] = molecular target: T1, SCRIB-3/4 (MBP fusion of the third of …); remark: listed apart in the source
[6] = molecular target: T2, SCRIB-34/4 (MBP fusion of the tandem of …); remark: listed apart in the source
[7] = molecular target: T4, MAGI1-3/6 (MBP fusion of the third of …); remark: listed apart in the source
[8] = molecular target: T3, SCRIB-4/4 (MBP fusion of the fourth of …)
[9] = molecular target: T1, SCRIB-3/4 (MBP fusion of the third of …); remark: listed apart in the source
[10] = molecular target: T2, SCRIB-34/4 (MBP fusion of the tandem of …); remark: listed apart in the source

T5 sequence (Q6RHR9 448-572): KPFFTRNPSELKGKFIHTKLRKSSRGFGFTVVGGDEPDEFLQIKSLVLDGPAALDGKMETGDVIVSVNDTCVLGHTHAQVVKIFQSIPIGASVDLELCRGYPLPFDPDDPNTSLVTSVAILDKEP
T4 sequence (Q6RHR9 613-752): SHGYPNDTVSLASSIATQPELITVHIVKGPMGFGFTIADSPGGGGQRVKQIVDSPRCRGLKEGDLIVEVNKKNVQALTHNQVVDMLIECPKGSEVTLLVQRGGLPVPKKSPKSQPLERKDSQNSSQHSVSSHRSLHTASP

Binder	Kd [1] [µM]	Kd [2] [µM]	Kd [3] [µM]	Kd [4]	Kd [5] [µM]	Kd [6] [µM]	Kd [7] [µM]	Kd [8] [µM]	Kd [9] [µM]	Kd [10] [µM]
Biotin-PMESGICTIV (also called TTC24 long; source: synthetic peptide (JPT Peptide Technologies)) [TTC24_10 (long peptide of Tetratricopeptide repeat protein 24: the last ten residues)]	37	117	49							
Biotin-PKRSFIESNV (also called TANC1 long; source: synthetic peptide (JPT Peptide Technologies))				287 µM	39	2				
Biotin-SEKHFRETEV (also called TAX1 long; HTLV1 Tax1; source: synthetic peptide (JPT Peptide Technologies))				53 µM	29		1230	48		
Biotin-SSRTRRETQL (source: synthetic peptide (JPT Peptide Technologies)) [16E6 (long peptide of HPV16 early protein E6: the last ten residues)]				3 µM and 9 µM	18	3			15	3
